Results on one substance are retold here after paper PMC10657410.

For this assay, the target named is GST-ApCaV2a1 C-terminal fragment 1 with the putative RxLPxxP site removed (Aplysia californica). Description: pull-down; GST protein on glutathione beads rotated with His-tag protein eluate overnight at 4 °C; washed 4 x 10 min with PBS; eluted by boiling; SDS-PAGE, Ponceau stain and blot with anti-His antibody.

For “His-SH3-3 domain of Aplysia RIM-binding protein (ApRBP) (domain or fragment)”, the percent of binding remaining stood at 26%.
